Test [1] concerns endogenous human caspase-12. In words: Induction of endogenous caspase-12 protein by ER stress-inducing agents in SH-EP cells (Western blot). It is filed as cell-based. The note with it: SH-EP cells, 1 μg/ml tunicamycin, harvested over time. How it is done:
Reports in the literature indicated a strong activation of murine caspase-12 in response to agents which induce an endoplasmic reticulum (ER) stress response, such as tunicamycin or the Ca^2+ ionophore A23187. The activation of endogenous human caspase-12 by these ER stress-inducing agents in SH-EP and HEK293 cells was evaluated by Western blot analysis of cell lysates. SH-EP is a neuroblastoma cell line that endogenously expresses human caspase-12 at detectable levels. HEK293 is a transformed kidney cell line that lacks detectable caspase-12.
(§1) Cell cultures were treated with 1 μg/ml tunicamycin or 2 μM A23187 (Calbiochem) and harvested over time. Cells were lysed in detergent buffer, cellular proteins resolved on NuPAGE gels and subjected to Western blot analysis using the same antibody as in Example 8A above. […] (BACHEM) for 40 hours.
The biological significance of caspase-12 up-regulation by the ER stress-inducing agent A23187 in apoptosis was further investigated. SH-EP cells were treated with 2 μM A23187 for 40 hours to induce expression of endogenous caspase-12. One control culture was left untreated. Of the four cultures treated with A23187, one culture received 10 μg/ml cycloheximide (CHX) to block new protein synthesis and two cultures were subjected to an apoptotic stimulus, either 250 ng/ml α-Fas antibody for 24 hours or 1200 microjoules UV irradiation. The cultures were harvested after 6.5 hours. Western blot analysis of caspase-12 expression and activation was done as described above in Example 8A, using similar protein loads for each condition tested.

For test [2], the system named is GRP 78. Briefly: Induction of GRP 78 in cell cultures (control Western blot). The note with it: tunicamycin treatment. Format: cell-based. How it is done:
as §1
(In general: A western blot detects proteins with antibodies after separation by electrophoresis.)

For test [3], the system named is SH-EP cells. In words: Cleavage of exogenous hCaspase-12 in transfected SH-EP cells after αFas-antibody induction of the extrinsic cell death pathway (Western blot). To be noted: 250 ng/ml αFas-antibody for 18 hours. Format: cell-based. On the procedure: The role of hCaspase-12 in cell death pathways was examined using cells of a neuroblastoma cell line, SH-EP. In the extrinsic (or receptor-induced) cell death pathway, caspase-8 is the apical caspase that cleaves effector caspases such as caspase-3, which cleaves many cellular substrates. Caspase activation, indicated by cleavage of the proform of the enzyme in cell lysates, was evaluated by Western blot analysis.
The expression vector pIRES-hrGFP-1a harboring the hCaspase-12 or RIK-5 gene was transfected into SH-EP cells using Superfect transfection reagent (Qiagen). At 24 hours post-transfection, 250 ng/ml αFas-antibody (CH-11, Upstate Biotechnology) was added and incubated for 18 hours to induce the extrinsic cell death pathway. Culture medium and cells were harvested and lysed in detergent buffer. Cleavage of exogenous hCaspase-12 was evaluated by Western blot analysis using anti-human caspase-12 antibody (prepared against peptide WSHHLEEIFQKVQHSFE as described in Example 4).

The target of test [4] is T1, calpain II (Homo sapiens, UniProt P17655).
T1 construct: purchased Calbiochem
T1 sequence (P17655 1-700): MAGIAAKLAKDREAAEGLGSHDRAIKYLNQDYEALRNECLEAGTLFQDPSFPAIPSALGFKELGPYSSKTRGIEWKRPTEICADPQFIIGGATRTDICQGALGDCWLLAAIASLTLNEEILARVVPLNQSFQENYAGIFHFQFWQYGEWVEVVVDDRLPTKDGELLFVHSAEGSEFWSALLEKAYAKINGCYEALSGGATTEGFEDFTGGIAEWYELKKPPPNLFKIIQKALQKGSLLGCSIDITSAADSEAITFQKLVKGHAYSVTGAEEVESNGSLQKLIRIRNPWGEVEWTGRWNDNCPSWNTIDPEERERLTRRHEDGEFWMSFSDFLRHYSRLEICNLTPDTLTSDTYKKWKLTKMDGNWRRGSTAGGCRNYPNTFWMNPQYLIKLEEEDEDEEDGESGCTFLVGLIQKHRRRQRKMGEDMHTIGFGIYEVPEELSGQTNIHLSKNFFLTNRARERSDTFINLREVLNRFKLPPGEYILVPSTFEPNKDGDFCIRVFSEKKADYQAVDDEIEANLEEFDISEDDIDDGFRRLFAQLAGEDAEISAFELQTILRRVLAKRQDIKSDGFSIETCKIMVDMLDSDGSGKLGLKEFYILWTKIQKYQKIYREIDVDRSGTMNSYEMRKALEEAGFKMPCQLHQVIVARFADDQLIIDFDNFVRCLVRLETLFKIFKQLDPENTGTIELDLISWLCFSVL
T1 sequence (P04632 1-268 partner): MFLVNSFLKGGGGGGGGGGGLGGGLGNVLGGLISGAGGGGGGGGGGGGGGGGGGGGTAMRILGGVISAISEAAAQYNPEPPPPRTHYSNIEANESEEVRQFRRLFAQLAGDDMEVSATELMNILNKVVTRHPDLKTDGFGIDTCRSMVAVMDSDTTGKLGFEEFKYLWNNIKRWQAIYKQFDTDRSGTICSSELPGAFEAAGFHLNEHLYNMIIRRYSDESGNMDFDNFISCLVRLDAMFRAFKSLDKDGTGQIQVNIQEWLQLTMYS
In words: Calpain II cleavage of human caspase-12 in vitro (Western blot). To be noted: affinity-purified protein, 0.012 U/μl calpain II activated by 5 mM CaCl2. It is filed as biochemical. How it is done:
The relationship between calpain and caspase-12 was explored in vitro as follows. Affinity-purified hCaspase-12 and ΔCARD caspase-12 prepared as described in Example 3B above, were incubated with 0.012 U/μl calpain II (Calbiochem) in solutions containing 150 mM NaCl, 20 mM Tris-HCl, pH 7.5, and 1 mM DTT. Calpain II was activated by the addition of 5 mM CaCl2, while corresponding control cultures were not activated by addition of calcium. Cleavage of human caspase-12 was evaluated by Western blot analysis as described in Example 8A above. […] Thus, the activation and processing of caspase-12 is closely tied to cellular calcium levels. It is anticipated that calpain will process caspase-12 by recognizing the cleavage site “ASADT” at positions 269-272 of hCaspase-12 (SEQ ID NO: 77), with cleavage occurring between residues 271 and 272. Because cellular calcium is an important regulatory feature in health and disease, the signaling pathway to caspase-12 may have multiple branches that can result in activation of this caspase.

Test [5] deals with procaspase-3. In words: Proteolytic activity using procaspase-3 substrate (Western blot). It is filed as biochemical. The note with it: partially purified preparation, 2 hours at 37° C.; antibody to full-length caspase-3. On the procedure:
Lysates which contain recombinant caspases produced by expression in E. coli often contain fragments indicative of autoprocessing. Because the autolysis in caspase-12 lysates observed in Example 3B above is indicative of enzymatic activity, the enzymatic activity of partially purified human caspase-12 lysates was evaluated using procaspase-3 as a potential substrate. Caspase-3 is an effector caspase, which is cleaved at Asp175 by initiator caspases-8 and -9 to give the mature 19 kDa and 11 kDa subunits of the active enzyme. Processing of procaspase-3 was evaluated by Western blot analysis using an antibody that binds to full-length caspase-3 and another antibody that binds to the larger B subunit and that is specific for activated enzyme.
For use as a substrate for caspase-12, procaspase-3 was immunoprecipitated from SH-EP cell lysates using an antibody to full-length caspase-3 (Upstate Biotechnology, Inc.) and isolated on Protein G-Plus/Protein A agarose (Oncogene Science). […] Caspase-3 processing/activation by caspase-12 was detected by incubating with an anti-caspase-3 antibody (Upstate Biotechnology) which recognizes all subunits of caspase-3. Following incubation with an anti-rabbit HRP-conjugated antibody (Santa Cruz Biotechnology), immunoreactivity was detected by chemiluminescence using SuperSignal West PICO reagent (Pierce). […]

The subject of test [6] is DEVD-R110. Briefly: Homogeneous Caspase Assay, fluorimetric, release of rhodamine-110 from DEVD-R110. It is filed as biochemical. The note with it: partially purified protein preparation; two-hour incubation of DEVD-R110 substrate. The source says: The enzymatic activity of the partially purified hCaspase-12 and ΔCARD proteins was further evaluated in a fluorimetric assay allowing quantitation. The caspase activity of partially purified hCaspase-12 and ΔCARD protein preparations was compared to a control (non-caspase protein) preparation, using the Homogeneous Caspase Assay (Roche Biochemicals) according to the manufacturer's protocol. The assay measures the amount of free rhodamine-110, following its release from the substrate DEVD-R110, a caspase recognition sequence. Following a two-hour incubation of DEVD-R110 substrate with dilutions of the various protein preparations, free rhodamine-110 was quantitated fluorimetrically. Measured fluorescence intensity (RFU) for each preparation was 807 for hCaspase-12, 445 for ΔCARD, and 31 for the control.

In the case of tunicamycin, the “Induction of caspase-12 protein” value in test [1] was “strong induction”. For the same molecule, the “Induction of GRP 78” value in test [2] is on record as “induction”.

B1: ΔCARD: variant of human caspase-12 missing the CARD domain, with Ser-205 to Gly mutation (SEQ ID NO: 79) (protein, listed as Homo sapiens)
chain: SALLEIQGAQPSGKLKLCPHAHFHELKTKRADEIYPVMEKERRTCLALNIRNKEFNYLHNRNGSELDLLGMRDLLENLGYSVVIKENLTAQEMETALRQFAAHPEHQSSDSTFLVFMSHGILNGICGTKHWDQEPDVLHDDTIFEIFNNRNCQSLKDKPKVIIMQACRGNGAGIVWFTTDSGKASADTHGRLLQGNICNDAVTKAHVEKDFIAFKSSTPHNVSWRHETNGSVFISQIIYYFREYSWSHHLEEIFQKVQHSFETPNILTQLPTIERLSMTRYFYLFPGN
Take B1: in test [3], the “Cleavage of exogenous protein in cultures undergoing apoptosis” value is “cleaved”. The “Cleavage by calpain II” value in test [4] was “cleaves”. For the same molecule, in test [5], the “Processing of procaspase-3 to mature subunits” value is “lower molecular weight bands indicative of cleaved mature subunits were observed”. For the same molecule, the “Measured fluorescence intensity (RFU), free rhodamine-110” value in test [6] is listed as 445 RFU.

(Values after patent publication US6833248B2, “Human caspase-12 materials and methods” (Pharmacia & Upjohn Company, priority 2000, dated 2004).)
